# Molecular target: 人IL-11Rα (全长基因, stably expressed on STAT3-luc HEK293 cells) (human) (UniProt Q14626)
# Experiment: cell-based or functional assay
# Sequence of UniProt Q14626 (Q14626 23-422): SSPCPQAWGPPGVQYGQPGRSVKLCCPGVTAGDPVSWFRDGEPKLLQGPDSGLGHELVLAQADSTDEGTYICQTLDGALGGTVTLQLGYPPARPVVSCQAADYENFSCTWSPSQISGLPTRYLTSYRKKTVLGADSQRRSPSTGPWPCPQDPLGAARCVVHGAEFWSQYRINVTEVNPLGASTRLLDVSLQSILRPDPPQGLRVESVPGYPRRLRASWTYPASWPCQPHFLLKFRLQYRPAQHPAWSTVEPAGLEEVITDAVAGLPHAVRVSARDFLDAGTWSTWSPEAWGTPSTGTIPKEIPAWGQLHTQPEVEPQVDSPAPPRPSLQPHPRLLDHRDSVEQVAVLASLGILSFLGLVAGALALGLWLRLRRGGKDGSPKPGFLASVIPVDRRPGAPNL
substance,measurement,value
IL-11 (ligand),IL-11刺激STAT3报告基因转录表达的EC50,0.11 ng/mL

# Source: patent publication CN116510007A
